Laboratory results taken from publication doi:10.1101/296517 (bioRxiv, 2018).
Values joined by “and” are separate entries in the source; they are usually repeats but may differ in a detail not shown here. Equal entries are not always repeated.

B1: Rab6a GTPase (natural protein, human (endogenous in LNCaP), UniProt P20340 1-208, looked up)
chain: MSTGGDFGNPLRKFKLVFLGEQSVGKTSLITRFMYDSFDNTYQATIGIDFLSKTMYLEDRTVRLQLWDTAGQERFRSLIPSYIRDSTVAVVVYDITNVNSFQQTTKWIDDVRTERGSDVIIMLVGNKTDLADKRQVSIEEGERKAKELNVMFIETSAKAGYNVKQLFRRVAAALPGMESTQDRSREDMIDIKLEKPQEQPVSEGGCSC
B2: GRASP65 (natural protein)
chain: not shown

Columns and labels:
Western blot = target: the molecule itself; assay: Western blot
Western blot of lysates = target: the molecule itself; assay: Western blot of lysates

Row | Protein | stoichiometry N (Western blot) | stoichiometry N (Western blot of lysates)
1 | B1 | 2 | –
2 | B2 | – | 2 and 4
